How the values were obtained:
[1] = target: T1, oxMIF: recombinant human MIF immobilized into ELISA plates (transforming MIF to oxMIF) (human, UniProt P14174 2-115); experiment: ELISA, antibody titrated on plate-immobilized recombinant human MIF (oxMIF), goat anti-human IgG(Fc)-HRP; EC50 of 4-parameter fit given as KD, two experiments
T1 construct: Same polypeptide as redMIF; differs in conformation (oxMIF isoform); also called immobilized MIF; immobilized oxMIF
Procedure: Recombinant human MIF diluted in PBS at 1 μg/ml was immobilized into ELISA plates overnight at 4° C. (transforming MIF to oxMIF according to Thiele et al., 2015). After blocking, serial dilutions of anti-oxMIF antibodies were added to the plates. Finally, bound antibodies were detected with Goat anti-human IgG(Fc)-HRP conjugate and tetramethylbenzidine (TMB) as substrate. The chromogenic reaction was stopped with 3M H₂SO₄ and OD was measured at 450 nm.

[2] = target: T2, Human oxMIF (human recombinant MIF treated with 0.2% Proclin300, oxMIF surrogate) (human, UniProt P14174 2-115, treated with 0.2% Proclin300 (active component 5-chloro-2-methyl-4-isothiazolin-3-one) for 3 h to transform MIF into an oxMIF surrogate); experiment: SPR (Biacore 3000), antibody amine-coupled to CM5 chip, Proclin300-treated MIF 50-150 nM as analyte, 1:1 Langmuir with mass transfer; mean of flow cells 2-4, SD +/-2.30 nM
T2 construct: SPR analyte; also called Proclin300 treated MIF; soluble human oxMIF
Procedure: (§1) FC1 was used as reference cell and was only reacted with buffers. Mouse or human recombinant MIF were diluted in HBS-EP buffer (GE Healthcare) to concentrations of 50, 75, 100, or 150 nM in the presence of 0.2% Proclin300 (active component 5-chloro-2-methyl-4-isothiazolin-3-one; Sigma) to transform MIF into an oxMIF surrogate (Thiele M et al., 2015) for 3 h at room temperature. Proclin300 treated MIF was applied to immobilized anti-oxMIF antibodies at a flow rate of 30 μl/min for 3 min using a Biacore™ 3000 Instrument (GE Healthcare). Dissociation time was 300 seconds, and the chip was regenerated using 10 mM HCl for 3 minutes. The kinetics of the concentration series were analyzed by local simultaneous association/dissociation fitting of each binding curve after subtraction of background from the reference cell (FC1) using the iterative Langmuir 1:1 interaction model with mass transfer compensation provided by the BiaEvaluation 4.1 software (GE Healthcare). Data are represented as mean+/−SD (standard deviation) of the calculated KD values of Flow Cells 2-4.

[3] = target: T2, Human oxMIF (human recombinant MIF …); experiment: SPR (Biacore 3000), antibody amine-coupled to CM5 chip, Proclin300-treated MIF 50-150 nM as analyte, 1:1 Langmuir with mass transfer; mean of flow cells 2-4, SD +/-0.83 nM
Procedure: as §1

T2 sequence (P14174 2-115 limits assumed): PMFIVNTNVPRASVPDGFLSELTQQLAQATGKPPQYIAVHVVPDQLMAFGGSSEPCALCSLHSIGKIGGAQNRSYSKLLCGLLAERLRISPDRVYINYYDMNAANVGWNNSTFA
T1 sequence (P14174 2-115 limits assumed): as above

Row | Kd [1] [nM] | Kd [2] [nM] | Kd [3] [nM] | Binder
1 | 0.3 | 6.06 |  | anti-oxMIF antibody C0108 (antibody, human IgG1, kappa, ADCC/ADCP enhancing mutations in the Fc portion) heavy: EVQLQESGGGLVQPGGSLRLSCAASGFTFSIYSMNWVRQAPGKGLEWVSSIGSSGGTTYYADSVKGRFTISRDNSKNTLYLQMNSLRAEDTAVYYCAGSQYLYGMDVWGQGTTVTVSSASTKGPSVFPLAPSSKSTSGGTAALGCLVKDYFPEPVTVSWNSGALTSGVHTFPAVLQSSGLYSLSSVVTVPSSSLGTQTYICNVNHKPSNTKVDKKVEPKSCDKTHTCPPCPAPELLGGPDVFLFPPKPKDTLMISRTPEVTCVVVDVSHEDPEVQFNWYVDGVEVHNAKTKPREEQFNSTFRVVSVLTVVHQDWLNGKEYKCKVSNKALPAPEEKTISKTKGQPREPQVYTLPPSREEMTKNQVSLTCLVKGFYPSDIAVEWESNGQPENNYKTTPPMLDSDGSFFLYSKLTVDKSRWQQGNVFSCSVMHEALHNHYTQKSLSLSPG light: DIQMTQSPSSLSASVGDRVTITCRSSQRIMTYLNWYQQKPGKAPKLLIYVGSHSQSGVPSRFRGSGSETDFTLTISGLQPEDSATYYCQQSFFTPLTFGGGTKVEIKRTVAAPSVFIFPPSDEQLKSGTASVVCLLNNFYPREAKVQWKVDNALQSGNSQESVTEQDSKDSTYSLSSTLTLSKADYEKHKVYACEVTHQGLSSPVTKSFNRGEC
2 | 0.3 |  | 3.69 | anti-oxMIF antibody C0109 (antibody, human IgG1, kappa, ADCC/ADCP enhancing mutations in the Fc portion) heavy: EVQLQESGGGLVQPGGSLRLSCAASGFTFSIYSMNWVRQAPGKGLEWVSSIGSSGGTTYYADSVKGRFTISRDNSKNTLYLQMNSLRAEDTAVYYCAGSQYLYGMDVWGQGTTVTVSSASTKGPSVFPLAPSSKSTSGGTAALGCLVKDYFPEPVTVSWNSGALTSGVHTFPAVLQSSGLYSLSSVVTVPSSSLGTQTYICNVNHKPSNTKVDKKVEPKSCDKTHTCPPCPAPELLGGPDVFLFPPKPKDTLMISRTPEVTCVVVDVSHEDPEVQFNWYVDGVEVHNAKTKPREEQFNSTFRVVSVLTVVHQDWLNGKEYKCKVSNKALPAPEEKTISKTKGQPREPQVYTLPPSREEMTKNQVSLTCLVKGFYPSDIAVEWESNGQPENNYKTTPPMLDSDGSFFLYSKLTVDKSRWQQGNVFSCSVMHEALHNHYTQKSLSLSPG light: DIQMTQSPSSLSASVGDRVTITCRSSQRILTYLNWYQQKPGKAPKLLIYVGSHSQSGVPSRFRGSGSETDFTLTISGLQSEDSATYYCQQSFFTPLTFGGGTKVEIKRTVAAPSVFIFPPSDEQLKSGTASVVCLLNNFYPREAKVQWKVDNALQSGNSQESVTEQDSKDSTYSLSSTLTLSKADYEKHKVYACEVTHQGLSSPVTKSFNRGEC
